Results from paper PMC10397247.
Blank lines part the entries; values can stand above or below the binder they belong to.

Tests used:
Assay in all cases: two-hybrid library CCNG1;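 further: natural log of median RNA to DNA barcode read ratio; higher means stronger binding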
4H3961-bN = target: T1, 4H3961-bN; details: mean of both orientations
T1 chain: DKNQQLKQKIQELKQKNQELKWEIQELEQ

4H4001-bN = target: T2, 4H4001-bN
T2 chain: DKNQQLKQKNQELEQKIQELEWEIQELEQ

4H470-bN = target: T3, 4H470-bN
T3 chain: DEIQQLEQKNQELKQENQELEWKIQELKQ

4H2588-bA = target: T4, 4H2588-bA
T4 chain: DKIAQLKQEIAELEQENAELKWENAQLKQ

4H2692-bA = target: T5, 4H2692-bA
T5 chain: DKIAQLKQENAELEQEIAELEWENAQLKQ

4H2717-bA = target: T6, 4H2717-bA
T6 chain: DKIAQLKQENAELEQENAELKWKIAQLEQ

4H2839-bA = target: T7, 4H2839-bA
T7 chain: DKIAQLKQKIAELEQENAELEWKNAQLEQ

4H2915-bA = target: T8, 4H2915-bA
T8 chain: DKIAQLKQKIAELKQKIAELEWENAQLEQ

4H3057-bA = target: T9, 4H3057-bA
T9 chain: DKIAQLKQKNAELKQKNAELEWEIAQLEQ

4H319-bA = target: T10, 4H319-bA
T10 chain: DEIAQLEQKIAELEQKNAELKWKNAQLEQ

4H3277-bA = target: T11, 4H3277-bA
T11 chain: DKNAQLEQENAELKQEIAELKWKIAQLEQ

4H348-bA = target: T12, 4H348-bA
T12 chain: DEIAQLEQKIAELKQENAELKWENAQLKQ

4H40-bA = target: T13, 4H40-bA
T13 chain: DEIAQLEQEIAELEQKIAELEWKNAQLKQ

4H477-bA = target: T14, 4H477-bA
T14 chain: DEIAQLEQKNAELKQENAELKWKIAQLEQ

4H492-bA = target: T15, 4H492-bA
T15 chain: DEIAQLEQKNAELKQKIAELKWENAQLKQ

4H741-bA = target: T16, 4H741-bA
T16 chain: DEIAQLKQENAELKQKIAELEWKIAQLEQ

4H3172-bA = target: T17, 4H3172-bA
T17 chain: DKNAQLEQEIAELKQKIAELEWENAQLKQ

4H3414-bA = target: T18, 4H3414-bA
T18 chain: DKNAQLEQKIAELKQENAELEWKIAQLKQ

4H3631-bA = target: T19, 4H3631-bA
T19 chain: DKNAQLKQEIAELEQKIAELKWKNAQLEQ

4H3638-bA = target: T20, 4H3638-bA
T20 chain: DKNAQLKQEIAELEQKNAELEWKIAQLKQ

4H3817-bA = target: T21, 4H3817-bA
T21 chain: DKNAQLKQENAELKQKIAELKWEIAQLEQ

4H3974-bA = target: T22, 4H3974-bA
T22 chain: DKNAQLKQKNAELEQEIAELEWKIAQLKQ

4H570-bA = target: T23, 4H570-bA
T23 chain: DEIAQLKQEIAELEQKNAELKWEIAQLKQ

4H584-bA = target: T24, 4H584-bA
T24 chain: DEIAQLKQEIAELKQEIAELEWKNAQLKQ

4H619-bA = target: T25, 4H619-bA
T25 chain: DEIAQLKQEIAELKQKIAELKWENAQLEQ

4H850-bA = target: T26, 4H850-bA
T26 chain: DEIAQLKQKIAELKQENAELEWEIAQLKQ

4H906-bA = target: T27, 4H906-bA
T27 chain: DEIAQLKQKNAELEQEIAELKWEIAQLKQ

P6bHq = target: T28, P6bHq
T28 chain: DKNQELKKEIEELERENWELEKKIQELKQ

P7bHq = target: T29, P7bHq
T29 chain: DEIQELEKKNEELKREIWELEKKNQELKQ

P8bHq = target: T30, P8bHq
T30 chain: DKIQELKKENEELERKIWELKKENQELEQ

P9bHq = target: T31, P9bHq
T31 chain: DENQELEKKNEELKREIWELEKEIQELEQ

P6A = target: T32, P6A
T32 chain: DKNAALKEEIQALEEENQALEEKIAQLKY

P7A = target: T33, P7A
T33 chain: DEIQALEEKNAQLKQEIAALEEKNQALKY

P8A = target: T34, P8A
T34 chain: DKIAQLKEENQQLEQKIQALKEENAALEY

P9A = target: T35, P9A
T35 chain: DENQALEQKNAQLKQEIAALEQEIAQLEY

4H3175-bA = target: T36, 4H3175-bA
T36 chain: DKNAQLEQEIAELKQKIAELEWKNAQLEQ

4H3298-bA = target: T37, 4H3298-bA
T37 chain: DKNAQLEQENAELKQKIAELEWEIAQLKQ

4H3462-bA = target: T38, 4H3462-bA
T38 chain: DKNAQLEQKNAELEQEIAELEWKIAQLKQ

4H3497-bA = target: T39, 4H3497-bA
T39 chain: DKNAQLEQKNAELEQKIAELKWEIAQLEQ

4H3613-bA = target: T40, 4H3613-bA
T40 chain: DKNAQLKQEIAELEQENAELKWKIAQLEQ

4H3628-bA = target: T41, 4H3628-bA
T41 chain: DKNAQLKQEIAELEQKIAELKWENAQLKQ

4H3926-bA = target: T42, 4H3926-bA
T42 chain: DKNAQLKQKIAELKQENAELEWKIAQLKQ

4H591-bA = target: T43, 4H591-bA
T43 chain: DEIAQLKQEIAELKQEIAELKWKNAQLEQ

4H626-bA = target: T44, 4H626-bA
T44 chain: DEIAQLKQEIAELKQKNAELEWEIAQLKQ

4H2702-bH = target: T45, 4H2702-bH
T45 chain: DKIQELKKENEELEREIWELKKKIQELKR

4H3010-bH = target: T46, 4H3010-bH
T46 chain: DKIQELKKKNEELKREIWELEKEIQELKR

4H3112-bH = target: T47, 4H3112-bH
T47 chain: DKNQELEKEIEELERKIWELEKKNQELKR

4H3427-bH = target: T48, 4H3427-bH
T48 chain: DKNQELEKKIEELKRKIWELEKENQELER

4H346-bH = target: T49, 4H346-bH
T49 chain: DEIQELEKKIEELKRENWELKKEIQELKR

4H3926-bH = target: T50, 4H3926-bH
T50 chain: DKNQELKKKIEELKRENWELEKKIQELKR

4H4073-bH = target: T51, 4H4073-bH
T51 chain: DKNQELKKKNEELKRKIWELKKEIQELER

4H457-bH = target: T52, 4H457-bH
T52 chain: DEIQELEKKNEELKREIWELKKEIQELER

4H575-bH = target: T53, 4H575-bH
T53 chain: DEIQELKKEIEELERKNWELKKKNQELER

4H683-bH = target: T54, 4H683-bH
T54 chain: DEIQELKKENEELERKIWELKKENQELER

4H754-bH = target: T55, 4H754-bH
T55 chain: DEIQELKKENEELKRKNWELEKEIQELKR

4H780-bH = target: T56, 4H780-bH
T56 chain: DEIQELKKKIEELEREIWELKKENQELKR

4H797-bH = target: T57, 4H797-bH
T57 chain: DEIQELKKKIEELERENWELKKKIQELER

4H855-bH = target: T58, 4H855-bH
T58 chain: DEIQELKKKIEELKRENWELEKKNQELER

4H918-bH = target: T59, 4H918-bH
T59 chain: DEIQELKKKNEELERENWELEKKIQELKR

4H953-bH = target: T60, 4H953-bH
T60 chain: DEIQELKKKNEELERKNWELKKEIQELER

4H968-bH = target: T61, 4H968-bH
T61 chain: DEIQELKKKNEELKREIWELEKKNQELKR

4H2673-bH = target: T62, 4H2673-bH
T62 chain: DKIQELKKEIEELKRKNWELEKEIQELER

4H56-bA = target: T63, 4H56-bA
T63 chain: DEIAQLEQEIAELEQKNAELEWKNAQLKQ

B2: 4H2588-bA (peptide)
chain: DKIAQLKQEIAELEQENAELKWENAQLKQ
interaction score (4H2588-bA): 1.71
interaction score (4H2692-bA): -0.738
interaction score (4H2717-bA): 0.0896
interaction score (4H2839-bA): 0.846
interaction score (4H2915-bA): 0.571
interaction score (4H3057-bA): -0.114
interaction score (4H319-bA): 0.789
interaction score (4H3277-bA): -0.938
interaction score (4H348-bA): 1.27
interaction score (4H40-bA): -1.21
interaction score (4H477-bA): -1.19
interaction score (4H492-bA): 0.34
interaction score (4H741-bA): -0.854

B3: 4H3172-bA (peptide)
chain: DKNAQLEQEIAELKQKIAELEWENAQLKQ
interaction score (4H3172-bA): 1.36
interaction score (4H3414-bA): -0.273
interaction score (4H3631-bA): 0.247
interaction score (4H3638-bA): -0.395
interaction score (4H3817-bA): -0.291
interaction score (4H3974-bA): 0.174
interaction score (4H570-bA): -1.11
interaction score (4H584-bA): -0.867
interaction score (4H619-bA): -0.797
interaction score (4H850-bA): -0.244
interaction score (4H906-bA): -0.0855

B4: P6bHq (peptide)
chain: DKNQELKKEIEELERENWELEKKIQELKQ
interaction score (P6bHq): 1.03
interaction score (P7bHq): 0.113
interaction score (P8bHq): 1
interaction score (P9bHq): -0.205

B5: P6A (peptide)
chain: DKNAALKEEIQALEEENQALEEKIAQLKY
interaction score (P6A): -0.792
interaction score (P7A): -0.197
interaction score (P8A): -0.152
interaction score (P9A): -0.171

B6: 4H3175-bA (peptide)
chain: DKNAQLEQEIAELKQKIAELEWKNAQLEQ
interaction score (4H3175-bA): 0.672
interaction score (4H3277-bA): -0.717
interaction score (4H3298-bA): -0.491
interaction score (4H3462-bA): -0.259
interaction score (4H3497-bA): 0
interaction score (4H3613-bA): -0.277
interaction score (4H3628-bA): -0.531
interaction score (4H3926-bA): -0.662
interaction score (4H4001-bN): -0.893
interaction score (4H591-bA): -1.55
interaction score (4H626-bA): -2
interaction score (4H906-bA): -1.09

B7: 4H2702-bH (peptide)
chain: DKIQELKKENEELEREIWELKKKIQELKR
interaction score (4H2702-bH): 1.55
interaction score (4H3010-bH): 1.37
interaction score (4H3112-bH): 0.549
interaction score (4H3427-bH): 0.468
interaction score (4H346-bH): 0.405
interaction score (4H3926-bH): 0.525
interaction score (4H4073-bH): 0.92
interaction score (4H457-bH): 1.57
interaction score (4H575-bH): -2.01
interaction score (4H683-bH): -0.558
interaction score (4H754-bH): -0.588
interaction score (4H780-bH): -0.871
interaction score (4H797-bH): -0.247
interaction score (4H855-bH): -0.0377
interaction score (4H918-bH): -0.77
interaction score (4H953-bH): 0.896
interaction score (4H968-bH): 0.8

Next, values leading:

interaction score (4H3961-bN): -1.14
interaction score (4H4001-bN): -0.763
interaction score (4H470-bN): -1.5
B1: 4H3961-bN (peptide)
chain: DKNQQLKQKIQELKQKNQELKWEIQELEQ

interaction score (4H2673-bH): -0.111
interaction score (4H2702-bH): -0.671
interaction score (4H3010-bH): 2.11
interaction score (4H3112-bH): -0.64
interaction score (4H3427-bH): -0.449
interaction score (4H346-bH): -0.803
interaction score (4H3926-bH): 0.192
interaction score (4H4073-bH): 0.575
interaction score (4H457-bH): -0.154
interaction score (4H56-bA): 0.863
interaction score (4H575-bH): -0.762
interaction score (4H683-bH): 0.639
interaction score (4H754-bH): -1.99
interaction score (4H780-bH): -0.56
interaction score (4H797-bH): -0.55
interaction score (4H855-bH): -0.854
interaction score (4H918-bH): -0.87
interaction score (4H953-bH): -1.62
interaction score (4H968-bH): -0.933
B8: 4H2673-bH (peptide)
chain: DKIQELKKEIEELKRKNWELEKEIQELER
